Reference: the PETadex activity labels (doi:10.1093/ismejo/wraf068)

Columns and labels:
BHET = assay: Proxy for plastic degradation [HPLC-UV] (mmol); conditions: pH 8
PET = assay: Proxy for plastic degradation [HPLC-UV] (mmol); conditions: pH 8

Protein | Proxy for plastic degradation (BHET) | Proxy for plastic degradation (PET; 30 °C) | Proxy for plastic degradation (PET; 60 °C)
unnamed (protein) CGKDGGIMTQDVEFTSDDGVLLKGTLYLPAGISEKLPGVTLAHMNMNDRTSWAYYAEKLALEGYVVLAFDLRGWGESGGESDFHEMYRDVMAAVTYLANFGKVDRNRIASAGASMGGMASVIAASRTSSIKAVATVSSPPAWSESEPVKVIGKLPPRPVLVIAGSSDPHLDLRAARMLFLAAKEPRQWLEIKTNKHGTDIFATPQGVELERALAMFFAENLKDSGRSSTTEKDGK | 0 | 0 | 0
unnamed (protein) VEPLADPAKPGPYPVGVTTMLLVDHSRTDNALAGGPRSLMTEIWYPATDDTRGLPKNRLLDFFNRNTDPGFTVLLKMAFGIDLIQADKDFRNDAVRDARVRDGRFPLVLFSHGNGGIRMQNAYWCEHMASHGYIVMAPDHTGNCAVTFIDGRIFPFNDSEEGREQSRQDRPKDISFLIDAMERMNKGADSRFMGKVDLDHIGVAGHSFGGFTSTWVADAEPRVDAIVPMAGAGAERVNYTCPVMVLVATEDDTLGPERMADLRRYYDESKGPRYLVEFLNAGHFSFTEMYQLKPDFGDGCGTGTRITNGEPLTYIAMDVAFPLIKGYTTAFFGKYLKGLDGYDAYLAANHNPNELVVKSSIPETPQ | – | 0 | 0
unnamed (protein) QSYEMGHRSEIYIDPSRGDRAIPTEIYYPSLTAGDDVPVADPPTGGFPVVAFAHGRMMPWDDYENIWGALAPQGFVVACPTTETGFMPNRTNFSLDLIYVISRIRLENSSATSPFYGKIGNASAVIGHSFGGVATFMAAIESDSITAIVTFASGQIDSVELAGISEPALIFAGTDDSLTPAATFQIPYYNNLGSSCKTLVNIIGGTHCHFAESSYYCDIGEAGFPPPGITRERQHELTNQFLIPWLDFMLNTDPVASDSFQTLLTTSGDILYLQDCDIMGVSRDDPTDLPGIIDLLAYPNPFNSAVRIGVERGEWRVENREIFDITGRMVAEIPAQSVIPDPDRESRGVVEGLDSRFHG | 0 | 0 | 0
unnamed (protein) CNDGSGGLEKTTELEPEDIYPLGDYYDPGKTGPYEVGVKTILLADNSRRTMLGHTKRILLTEVWYPILAPGDKINTVGDMIGQLPEWTPQILESFYGENWEDLLNIQTSAWRDAKTFLPDHPFPVIFFSHGLTALRFQNYTLCEHLASHGFLVIAPDHFDNNVFSNIPGHFTWFNPISTVASEFQRPRDIAFLVKHLQTRQSQTATFFGSYADPGRLGITGHSYGGMTSYAAGEQVAEIDAIAPLNPVILVPTTKFFTKPLLLLVGENDNLASSMFNSCEVAKRNYQTHKGNKAFLFLKNSGHYSATDACMLLPPGFINDDITGCGGAMLNPDIANEIVAAYQVAFFSITLKQDARYQDYLNKNNYPDNLDYEVSWK | – | 0 | 0
unnamed (protein) MSRAFSFASVAALLVFFAASIWLARLDKGGPPHTELMLEGEVPATLYLPGDGEHREAFLDAPPRDERPPAVVMMHGFSGDRLSMSGISRRLAESGYAVLNIDARGHGQNRNPFSSSWAAPDLFYPDLLAAVEFLRAYPFVDGSRIAVMGHSMGAGASLDYASRDSAIGAAVLVSGGWRIQGPHRPPNTLFLYATGDPERIRGRSRQLAAGLAGVNDPEVGRTYGDPTRGDAVRLAEVAGADHQTIVWREAAVRETVAWLDATFGVARSPGPVPDDPRAPLLPLIWAAFLLVMVGLGQVVGRLVPAQPYRPGGGRIAGLAAIAAAFALTMPLLALGTPGFILSMEVGDVFVSHFALAGIVLLVAIRMREPELIDSLFAPRLLPTLIGAAVGTIGVFTLMRVFEPVMHRLTLTPERFLVFVMAALGLLPLALAFNLLLRRGTTAGATLTSLAGRVLVLLVLFAGVQVGILSMVMLFMLPALGFVCLQFEVLAAAIYASSRNLLALSLIDAAWLAMVIAAIMPIRI | 0 | 0 | 0
unnamed (protein) QSYQIGHTSIIYYDANRSNREIPTEIYYPAENEGDNVPVADPYSDGFPVISFGHGRMTTWSAYENIWSVLVQEGYIVAFACTEMSFIPNHTEFGLDIAFLVNRIQAEGIDSTSLFHGKIGTTSAVMGHSMGGATCFLSAQGNETITAITSFVSGNTSPSPIDAAVDITIPALLFSGSDDYMTPAEEYQIPIYEALNSDCKTLISITGGNHCQFAEYDYYCDTMEDNYPEPALTREEQHEVTNRFFISWVNFNLKGDFGAWYEFEDSLMTSEAITYMHDCDVTSVLEEPSETNIFMEYGLSNHPNPFNLTTTIKYELPKSAHISLKIYNISSKLIKTLVDEKENTGYNSVIWDGKDENGNPVPSGIYLYNIEIDGRVFSETKRMILLK | – | 0 | 0
unnamed (protein) QNSANVQNEISYDVFDYAQHPMGTIWGDPLPDAPALAARGEYMVGVQTLHLSNPNQTDVINTITSKSTVIYDRPLTVEVWYPATLKAGQVQVTVYCDFLGRYDKPGTLVPYTFLGRATRDAVPDTADGPYPLIIISHGYPGSRHLLFYLGENLASKGYVVVSIDHTDSTYKDVGHFASTLVNRSLDQKFVIREILKMPIWKDLCNPNEVGIIGYSMGGYGALRTLGAGLEDSNTIKGFLGEFASMLIAKPSDEGDPLVKAAVLFAPWGGSFGTGPTGLWDKASLAKITVPTLWIAGSQDDIAGYEGIVNLFNSSVNSRRYLLTYDNALHNVAPHPAPSIATEFGDYYRFADPVWDMWRIDSINEHFVTAFFDLYLKGDESAGSYLDMKVENSNEGVYSDQAESSTYWPGFQPRTALGLKFR | – | 0 | 0
unnamed (protein) CGGGRVTPPDSPGEQMQAELAETLPEGGGREGRESDVAEVDREGESLDQGMDAEQTLPDAIGLTEEVGESGALYEAEGEAETIDGCDLADQGGEIEAWETLPPADVQQDEQLAAGTGDPFEWGPYEIGKKDYDFYDIQRMRLVPTTVWYPALPSGQSKAKYLLVVQGKAYVEPPAEPSGAPYPLVLFSHGYGGTRFQSVSYTEYLASHGYVVAAMDHIGNTFLDFFSDDAKVAQIALERPKDVRFVYQELVKLSNSGDGVMGGMVDQDRVAVTGHSFGGYTALVVAGAEIDVSEAIAACQSGAVSDIFCAYVEYWPAGEVIKLDPPIPGVQAAIYLAPGGYSAFGDQGLAAVKVPSMIFGGTLDDTCSVAVEIEPIYQALPPPKIEVLIQNGGHMSFTNLCDLPFAQFYLDKYCDVEGMIPAQQAFAVTNGLSVAFLDLYLKGVDAAAQYLTQEAVDEEFGYVELKAE | 0.05 | 0 | 0
unnamed (protein) VEIHDLHFYNRYNHTVAATIYLPENLNNSPAVIFCGGWLSSREMYSWLPEELAKRGYVVLAIDPSGNGDSYGKLPSFKIFGVRIFSVIDGPYNYINGVWSSDIYDAVTFLTTNYRVSKNVALIGHSMGGFAVTDEALKDGRIKTVIALSDADIYAIKNLKIPVMVITGDFDLIINDNLVAIPGYNAANPPKELIVIKFGTHNGFTNLIWPMPPWNHNVTLYYLSSWLDCFLREDRESCKTLEKPHKYLSTLSESKCNLDGKEKVIKRATGRRKTFTAFLLIFLFLAVLILYLRSKEG | – | 0 | 0
unnamed (protein) MEKPVVFENEGQQIVGMLHAPDGAEGLSPAVVMFHGFTGTKVEPHRLFVKTARRLAEEGFYVLRFDFRGSGDSEGEFREMTLEGEISDAKASLDFILSQPGVDRGRIGVIGLSMGGGVAACLAGRDERVRAVALWAAVSEDPPDLFQELIKTFEERPDKSVDYVDMGGNLVGKGFFEDLRNVKPLQEISGFEGPVLIVHGDNDQTVSVEHAYRFYERLKGKHPLTALHIIRGADHTFNSHEWEREVIEVTVDFMKRA | – | 0 | 0
unnamed (protein) MSQYDPFLRGPFPAGVKTYEFEDTSRDRKLPIECWYPATSAYKGKDLDKETQDQFQLMEGFPKARQNAVRDAEIVDDSFPLIIFSHGFAGHRRQTTHFCTHLAGHGYIVASIDHIGSTLPEIMQMVMKVRKEGKLPDIEKFMEDVANDRPVDATFTIDTILAGELGPGIDPDRIGITGHSFGGWTTLVTTKSDTRIKAALPLAPGGGKSPLYGKDNPLTKMLTLDWERTVPTLYLTAEFDTLLPLDGMKDMFDRTPEPKGMVVLLNADHFHFCDGVEVVHDFFRQMGGFVGGMDPGGESEPAPMKKAKPSSELCPGKDAYTFIQGIGLAHMDAHLKGNSDAIELLKGDIAALLADRGVKVEVMQG | – | 0 | 0
unnamed (protein) VGTISFDLVDKERLELYGDKIGEERKFKAQMWYPSDDVTEGERAPWIEDGVKVSRMIPKDIGLPGFLIDYSSLIKSNSYKGVPISEKEEKYPIVIISHGWTGYRNIHTDIGELLASHGYIAISIDHTYGSLATVFDNGEVIEVDYGALPNRNETEDFLDYANALVTTYAYDSRFVLDYLEELDDSELIDGRLDLDRIGTLGHSTGGGGVVKIAIEDDRIKAIFGFDPWVEPIEDELLKIGLDVPSLFIRSEQWEEGYNNGYLTTLINHSVIKPMTYQMNGVNHLDFTMLYMYRPILQAFGFAGELDSQVSSKIQLEYVLKFFETYLKDNETNLNDIEKIYDSVIPVNY | – | 0 | 0
unnamed (protein) MMKDIAITFREGTIAARIYLPPPVHRAGEPHPGIIILHGYLAQQIQFDDLPRRLARKGYVAITFDMPGHGRSSGKRGYIEKDLQIDAATTVLDHLISLPNVDPKRILVIGHSLGGAMGTYLCARDPRPTAFVAIAPAGSLKRIVPLPARMLFGIPYIIHRIKKRMTGNSLYFHSIVTEHIVWADKRKVKFELERELLQHRQPVDNYRTIFLIDPRIPARKVTIPTIMFLASRDRVVPNRISRELFDNIASDDKTLLTIENSGHSIMSDWKKEDFWKMLVPWLETHIPP | – | 0 | 0
